The source of these data is patent publication EP4692126A1 (Sound Biopharmaceuticals Co. Ltd., dated 2026).

In this test the target is T1, TPBG-His (UniProt Q13641 32-355, limits assumed).
T1 construct: probably the human protein, the same as m24; also called TPBG-His antigen; TPBG-His protein; not shown: His tag
T1 sequence (looked up): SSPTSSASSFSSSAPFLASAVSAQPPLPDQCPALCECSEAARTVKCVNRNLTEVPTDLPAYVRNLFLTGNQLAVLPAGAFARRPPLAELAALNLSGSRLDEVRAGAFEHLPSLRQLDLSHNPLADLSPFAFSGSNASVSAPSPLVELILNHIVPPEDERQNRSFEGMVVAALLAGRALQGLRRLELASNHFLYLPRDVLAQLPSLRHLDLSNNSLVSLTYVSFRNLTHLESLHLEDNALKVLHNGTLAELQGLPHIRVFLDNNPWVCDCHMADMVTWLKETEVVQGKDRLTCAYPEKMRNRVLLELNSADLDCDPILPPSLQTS
The test can be described thus: SPR (Biacore 8K), antibody captured on anti-human antibody CM5 chip, TPBG-His 300 nM, 1:1 model.

B1: hB5-2-12 (antibody, human IgG1, kappa)
heavy: not shown
light: DIQMTQSPSSLSASVGDRVTISCRASQDISNYLNWYQQKPGKAPKLLIYHTSILHSGVPSRFSGSGSGTDYSLTISSLQPEDFATYFCQQGDTVPLTFGGGTKVEIKRTVAAPSVFIFPPSDEQLKSGTASVVCLLNNFYPREAKVQWKVDNALQSGNSQESVTEQDSKDSTYSLSSTLTLSKADYEKHKVYACEVTHQGLSSPVTKSFNRGEC
notes: Humanized IgG1 kappa
B1: the dissociation constant (Kd) (usually the constant that tells how readily two partners part at equilibrium) turned out to be 0.785 nM, the koff (commonly a measure of how fast the partners let go of each other) is 0.000298 s⁻¹ and the kon (commonly the second-order rate constant of association) came to 380000 M⁻¹ s⁻¹.

B2: hB5-2-11 (antibody, human IgG1, kappa)
heavy: not shown
light: DIQMTQTTSSLSASVGDRVTISCRASQDISNYLNWFQQKPGKAPKSLIYHTSILHSGVPSKFSGSGSGTDYSLTISSLQPEDFATYFCQQGDTVPLTFGGGTKVEIKRTVAAPSVFIFPPSDEQLKSGTASVVCLLNNFYPREAKVQWKVDNALQSGNSQESVTEQDSKDSTYSLSSTLTLSKADYEKHKVYACEVTHQGLSSPVTKSFNRGEC
notes: Humanized IgG1 kappa
Turning to B2, the Kd stood at 1.39 nM, the koff came to 0.000431 s⁻¹ and the kon turned out to be 310000 M⁻¹ s⁻¹.

B3: hB5-2-18 (antibody, human IgG1, kappa)
heavy: not shown
light: DIQMTQSPSSLSASVGDRVTISCRASQDISNYLNWYQQKPGKVPKLLIYHTSILHSGVPSRFSGSGSGTDYSLTISSLQPEDVATYFCQQGDTVPLTFGGGTKVEIKRTVAAPSVFIFPPSDEQLKSGTASVVCLLNNFYPREAKVQWKVDNALQSGNSQESVTEQDSKDSTYSLSSTLTLSKADYEKHKVYACEVTHQGLSSPVTKSFNRGEC
notes: Humanized IgG1 kappa
B3 yielded a Kd of 2.07 nM, a koff of 0.00061 s⁻¹ and a kon of 294000 M⁻¹ s⁻¹.

B4: hB5-2-7 (antibody, human IgG1, kappa, V domains shown)
VH: EVQLVESGGGLVQPGGSLRLSCAASGFTFRNYAMSWVRQAPGKGLEWVAEISTGGSYTYYPDTVTGRFTISRDNSKNTLYLQMNSLRAEDTAVYYCAFYYYGSSYSMDYWGQGTLVTVSS
VL: DIQMTQTTSSLSASVGDRVTISCRASQDISNYLNWFQQKPGKAPKSLIYHTSILHSGVPSKFSGSGSGTDYSLTISSLQPEDFATYFCQQGDTVPLTFGGGTKVEIKR
notes: Humanized IgG1 kappa
For B4, the Kd was determined as 0.869 nM, the koff came to 0.000342 s⁻¹ and the kon turned out to be 393000 M⁻¹ s⁻¹.

B5: hB5-2-2 (antibody, human IgG1, kappa, V domains shown)
VH: EVQLVESGGGLVQPGGSLRLSCAASGFTFRNYAMSWVRQAPGKGLEWVAEISTGGSYTYYPDTVTGRFTISRDNAKNSLYLQMNSLRAEDTAVYYCAFYYYGSSYSMDYWGQGTLVTVSS
VL: DIQMTQSPSSLSASVGDRVTISCRASQDISNYLNWYQQKPGKVPKLLIYHTSILHSGVPSRFSGSGSGTDYSLTISSLQPEDVATYFCQQGDTVPLTFGGGTKVEIKR
notes: Humanized IgG1 kappa
B5 returned a dissociation constant (Kd) of 2.36 nM, a koff of 0.000527 s⁻¹ and a kon of 223000 M⁻¹ s⁻¹.

B6: hB5-2-17 (antibody, human IgG1, kappa)
heavy: not shown
light: DIQMTQSPSSLSASVGDRVTISCRASQDISNYLNWYQQKPGKAPKLLIYHTSILHSGVPSRFSGSGSGTDYSLTISSLQPEDIATYFCQQGDTVPLTFGGGTKVEIKRTVAAPSVFIFPPSDEQLKSGTASVVCLLNNFYPREAKVQWKVDNALQSGNSQESVTEQDSKDSTYSLSSTLTLSKADYEKHKVYACEVTHQGLSSPVTKSFNRGEC
notes: Humanized IgG1 kappa
B6: the Kd came to 0.902 nM, the off-rate constant (koff) stood at 0.000317 s⁻¹ and the kon is 351000 M⁻¹ s⁻¹.

B7: hB5-2-8 (antibody, human IgG1, kappa, V domains shown)
VH: EVQLVESGGGLVQPGGSLRLSCAASGFTFRNYAMSWVRQAPGKGLEWVAEISTGGSYTYYPDTVTGRFTISRDNSKNTLYLQMNSLRAEDTAVYYCAFYYYGSSYSMDYWGQGTLVTVSS
VL: DIQMTQSPSSLSASVGDRVTISCRASQDISNYLNWYQQKPGKAPKLLIYHTSILHSGVPSRFSGSGSGTDYSLTISSLQPEDFATYFCQQGDTVPLTFGGGTKVEIKR
notes: Humanized IgG1 kappa
B7: binding was characterised by a dissociation constant (Kd) of 0.95 nM, the koff was 0.000302 s⁻¹ and the kon was found to be 318000 M⁻¹ s⁻¹.

B8: hB5-2-1 (antibody, human IgG1, kappa, V domains shown)
VH: EVQLVESGGGLVQPGGSLRLSCAASGFTFRNYAMSWVRQAPGKGLEWVAEISTGGSYTYYPDTVTGRFTISRDNAKNSLYLQMNSLRAEDTAVYYCAFYYYGSSYSMDYWGQGTLVTVSS
VL: DIQMTQSPSSLSASVGDRVTISCRASQDISNYLNWYQQKPGKAPKLLIYHTSILHSGVPSRFSGSGSGTDYSLTISSLQPEDIATYFCQQGDTVPLTFGGGTKVEIKR
notes: Humanized IgG1 kappa
B8 gave a Kd of 1.11 nM, a koff of 0.000388 s⁻¹ and a kon of 351000 M⁻¹ s⁻¹.

B9: hB5-2-6 (antibody, human IgG1, kappa, V domains shown)
VH: EVQLVESGGGLVQPGGSLRLSCAASGFTFRNYAMSWVRQAPGKGLEWVAEISTGGSYTYYPDTVTGRFTISRDNSKNTLYLQMNSLRAEDTAVYYCAFYYYGSSYSMDYWGQGTLVTVSS
VL: DIQMTQSPSSLSASVGDRVTISCRASQDISNYLNWYQQKPGKVPKLLIYHTSILHSGVPSRFSGSGSGTDYSLTISSLQPEDVATYFCQQGDTVPLTFGGGTKVEIKR
notes: Humanized IgG1 kappa
As to B9, the affinity, expressed as Kd, was 1.53 nM; the koff amounted to 0.000497 s⁻¹; the kon was 326000 M⁻¹ s⁻¹.

B10: hB5-2-15 (antibody, human IgG1, kappa, V domains shown)
VH: EVQLVESGGGVVQPGRSLRLSCAASGFTFRNYAMSWVRQAPGKGLEWVAEISTGGSYTYYPDTVTGRFTISRDNSKNTLYLQMSSLRAEDTAVYYCAFYYYGSSYSMDYWGQGTLVTVSS
VL: DIQMTQTTSSLSASVGDRVTISCRASQDISNYLNWFQQKPGKAPKSLIYHTSILHSGVPSKFSGSGSGTDYSLTISSLQPEDFATYFCQQGDTVPLTFGGGTKVEIKR
notes: Humanized IgG1 kappa
The molecule B10 came in with a Kd of 1.95 nM, a koff of 0.000632 s⁻¹ and a kon of 324000 M⁻¹ s⁻¹.

B11: hB5-2-3 (antibody, human IgG1, kappa, V domains shown)
VH: EVQLVESGGGLVQPGGSLRLSCAASGFTFRNYAMSWVRQAPGKGLEWVAEISTGGSYTYYPDTVTGRFTISRDNAKNSLYLQMNSLRAEDTAVYYCAFYYYGSSYSMDYWGQGTLVTVSS
VL: DIQMTQTTSSLSASVGDRVTISCRASQDISNYLNWFQQKPGKAPKSLIYHTSILHSGVPSKFSGSGSGTDYSLTISSLQPEDFATYFCQQGDTVPLTFGGGTKVEIKR
notes: Humanized IgG1 kappa
Molecule B11 gave a Kd of 1.87 nM, a koff of 0.000681 s⁻¹ and a kon of 364000 M⁻¹ s⁻¹.

B12: hB5-2-5 (antibody, human IgG1, kappa, V domains shown)
VH: EVQLVESGGGLVQPGGSLRLSCAASGFTFRNYAMSWVRQAPGKGLEWVAEISTGGSYTYYPDTVTGRFTISRDNSKNTLYLQMNSLRAEDTAVYYCAFYYYGSSYSMDYWGQGTLVTVSS
VL: DIQMTQSPSSLSASVGDRVTISCRASQDISNYLNWYQQKPGKAPKLLIYHTSILHSGVPSRFSGSGSGTDYSLTISSLQPEDIATYFCQQGDTVPLTFGGGTKVEIKR
notes: Humanized IgG1 kappa
B12 returned a Kd of 0.827 nM, a koff of 0.000279 s⁻¹ and a kon of 337000 M⁻¹ s⁻¹.

B13: hB5-2-13 (antibody, human IgG1, kappa, V domains shown)
VH: EVQLVESGGGVVQPGRSLRLSCAASGFTFRNYAMSWVRQAPGKGLEWVAEISTGGSYTYYPDTVTGRFTISRDNSKNTLYLQMSSLRAEDTAVYYCAFYYYGSSYSMDYWGQGTLVTVSS
VL: DIQMTQSPSSLSASVGDRVTISCRASQDISNYLNWYQQKPGKAPKLLIYHTSILHSGVPSRFSGSGSGTDYSLTISSLQPEDIATYFCQQGDTVPLTFGGGTKVEIKR
notes: Humanized IgG1 kappa
As for B13, the Kd turned out to be 0.721 nM, the koff amounted to 0.000313 s⁻¹ and the kon stood at 434000 M⁻¹ s⁻¹.

B14: hB5-2-14 (antibody, human IgG1, kappa, V domains shown)
VH: EVQLVESGGGVVQPGRSLRLSCAASGFTFRNYAMSWVRQAPGKGLEWVAEISTGGSYTYYPDTVTGRFTISRDNSKNTLYLQMSSLRAEDTAVYYCAFYYYGSSYSMDYWGQGTLVTVSS
VL: DIQMTQSPSSLSASVGDRVTISCRASQDISNYLNWYQQKPGKVPKLLIYHTSILHSGVPSRFSGSGSGTDYSLTISSLQPEDVATYFCQQGDTVPLTFGGGTKVEIKR
notes: Humanized IgG1 kappa
On to B14, for which binding was characterised by a dissociation constant (Kd) of 1.74 nM, the koff was 0.000774 s⁻¹ and the kon was 445000 M⁻¹ s⁻¹.

B15: hB5-2-4 (antibody, human IgG1, kappa, V domains shown)
VH: EVQLVESGGGLVQPGGSLRLSCAASGFTFRNYAMSWVRQAPGKGLEWVAEISTGGSYTYYPDTVTGRFTISRDNAKNSLYLQMNSLRAEDTAVYYCAFYYYGSSYSMDYWGQGTLVTVSS
VL: DIQMTQSPSSLSASVGDRVTISCRASQDISNYLNWYQQKPGKAPKLLIYHTSILHSGVPSRFSGSGSGTDYSLTISSLQPEDFATYFCQQGDTVPLTFGGGTKVEIKR
notes: Humanized IgG1 kappa
B15 yielded a Kd of 0.845 nM, a koff of 0.000298 s⁻¹ and a kon of 353000 M⁻¹ s⁻¹.

B16: hB5-2-16 (antibody, human IgG1, kappa, V domains shown)
VH: EVQLVESGGGVVQPGRSLRLSCAASGFTFRNYAMSWVRQAPGKGLEWVAEISTGGSYTYYPDTVTGRFTISRDNSKNTLYLQMSSLRAEDTAVYYCAFYYYGSSYSMDYWGQGTLVTVSS
VL: DIQMTQSPSSLSASVGDRVTISCRASQDISNYLNWYQQKPGKAPKLLIYHTSILHSGVPSRFSGSGSGTDYSLTISSLQPEDFATYFCQQGDTVPLTFGGGTKVEIKR
notes: Humanized IgG1 kappa
For B16, the affinity, expressed as Kd, was 0.634 nM; the koff came to 0.000347 s⁻¹; the kon was 547000 M⁻¹ s⁻¹.

B17: hB5-2-9 (antibody, human IgG1, kappa)
heavy: not shown
light: DIQMTQSPSSLSASVGDRVTISCRASQDISNYLNWYQQKPGKAPKLLIYHTSILHSGVPSRFSGSGSGTDYSLTISSLQPEDIATYFCQQGDTVPLTFGGGTKVEIKRTVAAPSVFIFPPSDEQLKSGTASVVCLLNNFYPREAKVQWKVDNALQSGNSQESVTEQDSKDSTYSLSSTLTLSKADYEKHKVYACEVTHQGLSSPVTKSFNRGEC
notes: Humanized IgG1 kappa
The molecule B17 yielded a Kd of 0.927 nM, a koff of 0.000278 s⁻¹ and a kon of 299000 M⁻¹ s⁻¹.
